{
  "source": "paper PMC5897525",
  "biological_target": "rFel d 1.mFc",
  "assay": "SPR; 25°C; dimeric",
  "data": [
    {"substance": "REGN1908", "values": [
      {"measurement": "Kd", "result": 0.0316, "unit": "nM"},
      {"measurement": "koff", "result": "7.25e-05", "unit": "s⁻¹"}
    ]}
  ]
}
